Test results published in PMC9974412.

Target: HIV-1 Env, strain HXB2 (HIV-1) (UniProt P04578)

5-Helix (designed binder)
IC50 of neutralisation of HXB2 Env-pseudotyped lentivirus, HOS-CD4-CCR5 cells: 8.2 nM
